In patent US20210070881A1 (DENALI THERAPEUTICS, published 2021):
Numbering of substitutions follows the chain as printed.

B1: hu2H8v11 (antibody, V domains shown)
VH: QVQLVQSGAEVKKPGASVKVSCKASGYTFTNFWIHWVRQAPGQGLEWMGMIDPSDSYTKYNQKFKARATLTVDTSTSTVYMELSSLRSEDTAVYYCARSGVAFPYWGQGTLVTVSS
VL: DIQMTQSPSSLSASVGDRVTITCKASQDVGRNVAWYQQKPGKSPKLLIYSASHRYSGVPSRFSGSGSGTDFTLTISSLQPEDFATYYCQQYNSYPYTFGQGTKVEIK
notes: humanized; also called hu2H8_HC6 + hu2H8_LC2
B2: hu2H8v12 (antibody, V domains shown)
VH: B1 VH with V37L, V79T
VL: B1 VL
notes: humanized; also called hu2H8_HC7 + hu2H8_LC2
B3: hu2H8v13 (antibody, V domains shown)
VH: B1 VH with A68V, L70M, V72R, V79T
VL: B1 VL with S43A, L46S
notes: humanized; also called hu2H8_HC1 + hu2H8_LC3
B4: hu2H8v14 (antibody, V domains shown)
VH: B1 VH with V37L, A68V, L70M, V72R, V79T
VL: B1 VL with S43A, L46S
notes: humanized; also called hu2H8_HC2 + hu2H8_LC3
B5: hu2H8v15 (antibody, V domains shown)
VH: B1 VH with V37L, A68V, L70M, V79T
VL: B1 VL with S43A, L46S
notes: humanized; also called hu2H8_HC3 + hu2H8_LC3
B6: hu2H8v16 (antibody, V domains shown)
VH: B1 VH with V72R
VL: B1 VL with S43A, L46S
notes: humanized; also called hu2H8_HC5 + hu2H8_LC3
B7: hu2H8v18 (antibody, V domains shown)
VH: B1 VH with V37L, V79T
VL: B1 VL with S43A, L46S
notes: humanized; also called hu2H8_HC7 + hu2H8_LC3
B8: hu2H8v19 (antibody, V domains shown)
VH: B1 VH with A68V, L70M, V72R, V79T
VL: B1 VL with L46S
notes: humanized; also called hu2H8_HC1 + hu2H8_LC4
B9: hu2H8v20 (antibody, V domains shown)
VH: B1 VH with V37L, A68V, L70M, V72R, V79T
VL: B1 VL with L46S
notes: humanized; also called hu2H8_HC2 + hu2H8_LC4
B10: hu2H8v21 (antibody, V domains shown)
VH: B1 VH with V37L, A68V, L70M, V79T
VL: B1 VL with L46S
notes: humanized; also called hu2H8_HC3 + hu2H8_LC4
B11: hu2H8v22 (antibody, V domains shown)
VH: B1 VH with V72R
VL: B1 VL with L46S
notes: humanized; also called hu2H8_HC5 + hu2H8_LC4
B12: hu2H8v23 (antibody, V domains shown)
VH: B1 VH
VL: B1 VL with L46S
notes: humanized; also called hu2H8_HC6 + hu2H8_LC4
B13: hu2H8v24 (antibody, V domains shown)
VH: B1 VH with V37L, V79T
VL: B1 VL with L46S
notes: humanized; also called hu2H8_HC7 + hu2H8_LC4
B14: hu2H8v25 (antibody, V domains shown)
VH: B1 VH with A68V, L70M, V72R, V79T
VL: B1 VL with L46S, Y87F
notes: humanized; also called hu2H8_HC1 + hu2H8_LC5
B15: hu2H8v26 (antibody, V domains shown)
VH: B1 VH with V37L, A68V, L70M, V72R, V79T
VL: B1 VL with L46S, Y87F
notes: humanized; also called hu2H8_HC2 + hu2H8_LC5
B16: hu2H8v28 (antibody, V domains shown)
VH: B1 VH with V72R
VL: B1 VL with L46S, Y87F
notes: humanized; also called hu2H8_HC5 + hu2H8_LC5
B17: hu2H8v30 (antibody, V domains shown)
VH: B1 VH with V37L, V79T
VL: B1 VL with L46S, Y87F
notes: humanized; also called hu2H8_HC7 + hu2H8_LC5

target: T1, recombinant BACE1 (BACE1 extracellular domain, R&D Systems Cat#931-AS) (UniProt P56817 22-457); test: SPR Biacore
T1 construct: extracellular domain; also called BACE1 extracellular domain protein
T1 sequence (P56817 22-457): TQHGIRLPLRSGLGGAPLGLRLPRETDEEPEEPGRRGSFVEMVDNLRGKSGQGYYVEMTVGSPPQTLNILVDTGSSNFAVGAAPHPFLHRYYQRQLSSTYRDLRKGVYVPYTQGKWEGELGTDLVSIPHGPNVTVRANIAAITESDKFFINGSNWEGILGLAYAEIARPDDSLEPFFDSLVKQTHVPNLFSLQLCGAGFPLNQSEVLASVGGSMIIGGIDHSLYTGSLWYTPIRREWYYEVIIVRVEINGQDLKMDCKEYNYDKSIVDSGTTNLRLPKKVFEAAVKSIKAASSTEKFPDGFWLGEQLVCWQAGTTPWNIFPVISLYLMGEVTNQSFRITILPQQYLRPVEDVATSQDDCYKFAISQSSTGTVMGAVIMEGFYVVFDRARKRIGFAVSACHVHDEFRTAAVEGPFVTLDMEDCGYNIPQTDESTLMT

Row | Binder | Kd [nM]
1 | B1 | 88.3
2 | B2 | 171
3 | B3 | 22.8
4 | B4 | 17.7
5 | B5 | 16.4
6 | B6 | 25.6
7 | B7 | 20.7
8 | B8 | 17.4
9 | B9 | 13.2
10 | B10 | 13.5
11 | B11 | 21.9
12 | B12 | 28
13 | B13 | 74
14 | B14 | 22.1
15 | B15 | 16.3
16 | B16 | 19.5
17 | B17 | 23.7
